The data set concerns the molecule itself. Description: cryo-EM structure.

The source of these data is article doi:10.1101/2023.07.22.550172 (bioRxiv, 2023).

B1: major pilin PilA of Myxococcus xanthus (MXAN_5783), mature, as the subunit of the type IV pilus (natural protein, UniProt Q59589 13-220, looked up)
chain: FTLIELMIVVAIIGILAAIAIPNFIKFQARSKQSEAKTNLKALYTAQKSFFSEKDRYSDFANEIGFAPERGNRYGYRVSAAAGDCEVRNAADLPVPAAGVPCISNDSFRFGANSAIDDPTPVVARFVPQGAAGWNTTLGVQPTIADCPNCNFFAGARGNADNEATFDDWVIAGFEGSGQVGPCSEAGNVASGTPYNTRNDVACDGAAQ
Consider B1, for which the binding result is listed as “binds”.
